Reference: article PMC13269782

Biological target: T1, Cx47, human (human) (UniProt Q5T442)
T1 sequence: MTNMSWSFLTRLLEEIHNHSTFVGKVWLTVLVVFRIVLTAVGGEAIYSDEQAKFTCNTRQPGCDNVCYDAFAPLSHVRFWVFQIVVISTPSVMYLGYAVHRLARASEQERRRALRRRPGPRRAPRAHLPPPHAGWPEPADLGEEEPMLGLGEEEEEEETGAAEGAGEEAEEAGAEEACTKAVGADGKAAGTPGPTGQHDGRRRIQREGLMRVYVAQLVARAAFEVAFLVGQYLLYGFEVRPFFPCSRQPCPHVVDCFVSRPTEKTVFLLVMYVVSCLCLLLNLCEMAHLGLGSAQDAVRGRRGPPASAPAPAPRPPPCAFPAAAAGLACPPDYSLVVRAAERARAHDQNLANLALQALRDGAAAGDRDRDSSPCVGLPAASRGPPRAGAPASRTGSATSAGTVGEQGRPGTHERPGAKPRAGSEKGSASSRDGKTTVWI

- median junctional conductance (Gj), dual whole-cell patch clamp of DKO HEK293 cell pairs, homotypic; IQR 0.08–7.68; 20 pairs: 1.3 nS
B1: Cx47, human (natural protein)
chain: MTNMSWSFLTRLLEEIHNHSTFVGKVWLTVLVVFRIVLTAVGGEAIYSDEQAKFTCNTRQPGCDNVCYDAFAPLSHVRFWVFQIVVISTPSVMYLGYAVHRLARASEQERRRALRRRPGPRRAPRAHLPPPHAGWPEPADLGEEEPMLGLGEEEEEEETGAAEGAGEEAEEAGAEEACTKAVGADGKAAGTPGPTGQHDGRRRIQREGLMRVYVAQLVARAAFEVAFLVGQYLLYGFEVRPFFPCSRQPCPHVVDCFVSRPTEKTVFLLVMYVVSCLCLLLNLCEMAHLGLGSAQDAVRGRRGPPASAPAPAPRPPPCAFPAAAAGLACPPDYSLVVRAAERARAHDQNLANLALQALRDGAAAGDRDRDSSPCVGLPAASRGPPRAGAPASRTGSATSAGTVGEQGRPGTHERPGAKPRAGSEKGSASSRDGKTTVWI
